Test results as given in US20150307590A1 (GOVERNORS OF THE UNIVERSITY OF ALBERTA, published 2015).

T1: human IL-28R alpha subunit (human, UniProt Q8IU57 21-228, limits assumed)
T1 construct: also called IL28R1; IL-28R1
T1 sequence: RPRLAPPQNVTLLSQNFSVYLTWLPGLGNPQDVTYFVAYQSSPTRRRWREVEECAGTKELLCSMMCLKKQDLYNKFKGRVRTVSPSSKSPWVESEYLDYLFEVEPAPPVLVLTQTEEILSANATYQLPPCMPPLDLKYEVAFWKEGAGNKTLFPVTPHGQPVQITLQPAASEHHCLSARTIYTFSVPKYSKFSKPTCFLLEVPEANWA

B1: Peptide 17 (IL29T-2) (peptide)
peptide: KLKNWSCSSPVFPGNWDLRL
notes: also called 28pep17; p17
B2: Peptide 18 (IL28BT-3) (peptide)
peptide: EATADTDPALGDVLDQPL
notes: also called 28pep18
B3: Peptide 1 (IL29-1) (peptide)
peptide: ELASFKKARDALEESLKL
notes: also called 28pep1; Pep1
B4: Peptide 2 (IL28-1) (peptide)
peptide: ELQAFKRAKDALEESLLL
notes: also called 28pep2; Pep2
B5: Peptide 15 (IL28BT-2) (peptide)
peptide: LLKDCKCRSRLFPRTWDLRQ
notes: also called 28pep15
B6: Peptide 16 (IL28AT-2) (peptide)
peptide: LLKDCRCHSRLFPRTWDLRQ
notes: also called 28pep16
B7: human IL-28A (ligand)
chain: VPVARLHGALPDARGCHIAQFKSLSPQELQAFKRAKDALEESLLLKDCRCHSRLFPRTWDLRQLQVRERPMALEAELALTLKVLEATADTDPALVDVLDQPLHTLHHILSQFRACIQPQPTAGPRTRGRLHHWLYRLQEAPKKESPGCLEASVTFNLFRLLTRDLNCVASGDLCV
notes: also called IFN-λ2; interferon-lambda-2
B8: human IL-28B (ligand)
chain: VPVARLRGALPDARGCHIAQFKSLSPQELQAFKRAKDALEESLLLKDCKCRSRLFPRTWDLRQLQVRERPVALEAELALTLKVLEATADTDPALGDVLDQPLHTLHHILSQLRACIQPQPTAGPRTRGRLHHWLHRLQEAPKKESPGCLEASVTFNLFRLLTRDLNCVASGDLCV
notes: also called IFN-λ3; interferon-lambda-3
B9: human IL-29 (ligand)
chain: GPVPTSKPTTTGKGCHIGRFKSLSPQELASFKKARDALEESLKLKNWSCSSPVFPGNWDLRLLQVRERPVALEAELALTLKVLEAAAGPALEDVLDQPLHTLHHILSQLQACIQPQPTAGPRPRGRLHHWLHRLQEAPKKESAGCLEASVTFNLFRLLTRDLKYVADGNLCLRTSTHPEST
notes: also called IFN-λ1; interferon-lambda-1

The binders below were run against T1, human IL-28R alpha subunit (assay: ELISA (right panel)).

| Binder | binding result |
| --- | --- |
| B1 | binds |
| B2 | binds |
| B3 | binds |
| B4 | binds |
| B5 | binds |
| B6 | binds |

What follows are binders tested against T1, human IL-28R alpha subunit (assay: Biacore assay (left panel), n=6).

| Binder | binding result |
| --- | --- |
| B7 | binds |
| B8 | binds |
| B9 | binds |
